For this assay, the target named is t-SNARE complex (syntaxin 1 and SNAP25) (UniProt Q16623).
Chain of t-SNARE complex (syntaxin 1 and SNAP25) (Q16623 whole entry, chain 1 of 2): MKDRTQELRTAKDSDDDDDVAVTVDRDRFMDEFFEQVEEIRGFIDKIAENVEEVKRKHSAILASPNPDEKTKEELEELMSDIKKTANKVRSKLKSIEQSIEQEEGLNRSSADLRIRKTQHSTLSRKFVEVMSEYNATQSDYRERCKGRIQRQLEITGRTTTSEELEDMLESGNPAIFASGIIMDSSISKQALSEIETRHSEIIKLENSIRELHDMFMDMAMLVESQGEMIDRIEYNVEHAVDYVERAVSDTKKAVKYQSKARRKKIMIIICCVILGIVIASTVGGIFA
Chain of t-SNARE complex (syntaxin 1 and SNAP25) (chain, as listed by the source, chain 2 of 2): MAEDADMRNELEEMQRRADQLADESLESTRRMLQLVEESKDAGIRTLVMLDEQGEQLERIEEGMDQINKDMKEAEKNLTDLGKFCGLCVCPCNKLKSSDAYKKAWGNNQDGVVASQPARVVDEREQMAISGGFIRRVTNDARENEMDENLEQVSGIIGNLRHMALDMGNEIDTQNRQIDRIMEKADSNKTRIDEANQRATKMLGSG

With “VAMP2 p.Ser75Pro variant (from UniProt P63027 1-116) (natural protein)”, the reconstituted liposome lipid-mixing assay (NBD dequenching), basal fusion without Munc18-1 of v-liposomes with t-SNARE liposomes, against WT VAMP2 turned out to be 25%.

Source of the values: PMC6451933.
